Data set [1] deals with T1, SRA domain of mouse UHRF1 (Mus musculus, UniProt Q8VDF2 419-628).
T1 sequence: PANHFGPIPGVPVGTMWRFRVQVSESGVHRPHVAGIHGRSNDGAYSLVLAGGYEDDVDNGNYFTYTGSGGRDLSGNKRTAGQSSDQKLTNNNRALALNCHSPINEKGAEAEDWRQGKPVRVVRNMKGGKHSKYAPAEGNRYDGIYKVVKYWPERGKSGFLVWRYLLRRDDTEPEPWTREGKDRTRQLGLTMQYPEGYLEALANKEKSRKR
Kind of data set: MST; MST: PBS-T (0.05% Tween-20), 50 nM labelled SRA, 20 min, room temperature; EMSA: 20 mM Tris-HCl pH 7.5, 150 mM NaCl, 0.5 mM EDTA, 1 mM DTT, 100 ng/ul BSA, 250 nM of each DNA, 4.69-300 nM protein, 30 min on ice, 6% PAGE 0.5x TBE; melting: 50 mM Tris-HCl pH 7.5, 0.5 mM b-ME, 10 mM EDTA. The following applies: protein: recombinant, tags: His6, NT-647 (RED-tris-NTA) label in MST.

The target of data set [2] is T2, GFP-mUHRF1 (Np95) (Mus musculus, UniProt Q8VDF2 1-782).
T2 sequence: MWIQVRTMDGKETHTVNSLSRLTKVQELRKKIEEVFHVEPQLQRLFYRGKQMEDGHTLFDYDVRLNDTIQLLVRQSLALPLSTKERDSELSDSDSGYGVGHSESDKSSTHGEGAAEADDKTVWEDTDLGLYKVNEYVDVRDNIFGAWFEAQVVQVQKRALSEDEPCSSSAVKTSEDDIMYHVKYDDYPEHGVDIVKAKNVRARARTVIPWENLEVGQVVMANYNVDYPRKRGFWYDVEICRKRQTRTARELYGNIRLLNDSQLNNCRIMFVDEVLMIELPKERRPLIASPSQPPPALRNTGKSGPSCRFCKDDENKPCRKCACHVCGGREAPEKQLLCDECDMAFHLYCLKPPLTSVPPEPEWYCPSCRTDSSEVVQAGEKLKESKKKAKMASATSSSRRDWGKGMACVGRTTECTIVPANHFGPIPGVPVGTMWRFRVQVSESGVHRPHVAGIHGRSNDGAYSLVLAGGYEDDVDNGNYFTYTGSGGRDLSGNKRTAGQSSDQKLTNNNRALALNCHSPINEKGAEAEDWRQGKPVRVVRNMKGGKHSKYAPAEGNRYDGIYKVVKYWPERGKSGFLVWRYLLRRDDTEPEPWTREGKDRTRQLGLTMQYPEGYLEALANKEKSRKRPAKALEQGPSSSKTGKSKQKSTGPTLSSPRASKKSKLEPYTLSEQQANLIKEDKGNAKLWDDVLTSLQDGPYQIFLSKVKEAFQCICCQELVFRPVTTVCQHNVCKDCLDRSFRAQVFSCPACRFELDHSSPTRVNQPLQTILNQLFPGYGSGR
Kind of data set: EMSA, two-colour competition; ATTO647N C-C' DNA as competitor; MST: PBS-T (0.05% Tween-20), 50 nM labelled SRA, 20 min, room temperature; EMSA: 20 mM Tris-HCl pH 7.5, 150 mM NaCl, 0.5 mM EDTA, 1 mM DTT, 100 ng/ul BSA, 250 nM of each DNA, 4.69-300 nM protein, 30 min on ice, 6% PAGE 0.5x TBE; melting: 50 mM Tris-HCl pH 7.5, 0.5 mM b-ME, 10 mM EDTA. To be noted: protein: recombinant; tags: GFP (N-terminal by name); label: ATTO550 (EMSA).

Data set [3] concerns the target T3, mUHRF2-GFP (Mus musculus, UniProt Q7TMI3 1-803).
T3 sequence: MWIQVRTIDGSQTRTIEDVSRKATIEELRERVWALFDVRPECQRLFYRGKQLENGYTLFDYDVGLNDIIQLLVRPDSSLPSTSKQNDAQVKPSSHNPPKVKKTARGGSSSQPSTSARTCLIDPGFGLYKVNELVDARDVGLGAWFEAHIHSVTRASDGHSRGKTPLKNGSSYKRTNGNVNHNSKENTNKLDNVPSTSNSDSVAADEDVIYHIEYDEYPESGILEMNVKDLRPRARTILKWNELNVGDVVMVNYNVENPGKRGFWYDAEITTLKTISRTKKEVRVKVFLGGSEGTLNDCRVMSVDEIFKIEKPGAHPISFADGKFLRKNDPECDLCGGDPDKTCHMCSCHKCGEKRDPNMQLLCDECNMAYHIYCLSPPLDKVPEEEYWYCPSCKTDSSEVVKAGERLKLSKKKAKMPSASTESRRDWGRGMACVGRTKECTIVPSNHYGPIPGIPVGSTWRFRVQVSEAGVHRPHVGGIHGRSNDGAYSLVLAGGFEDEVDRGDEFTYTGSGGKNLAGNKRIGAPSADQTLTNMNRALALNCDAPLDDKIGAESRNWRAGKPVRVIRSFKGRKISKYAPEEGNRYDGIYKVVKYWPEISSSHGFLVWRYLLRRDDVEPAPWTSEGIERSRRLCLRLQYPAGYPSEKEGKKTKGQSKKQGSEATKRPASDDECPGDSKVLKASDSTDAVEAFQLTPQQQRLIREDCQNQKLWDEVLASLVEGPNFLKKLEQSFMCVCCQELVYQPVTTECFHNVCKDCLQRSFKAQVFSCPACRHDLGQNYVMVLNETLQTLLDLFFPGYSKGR
Described as above. To be noted: protein: recombinant; tags: GFP (C-terminal by name); label: ATTO550 (EMSA). (A gel shift assay detects complexes by their altered migration in electrophoresis.)

The text below walks through data of paper PMC7034832, “Systematic analysis of the binding behaviour of UHRF1 towards different methyl- and carboxylcytosine modification patterns at CpG dyads”.

As usually defined, the Kd is a measure of binding affinity in units of concentration.

B1: 42 bp C-C' (dsDNA)
DNA 1: GGATGATGACTCTTCTGGTCCGGATGGTAGTTAAGTGTTGAG
DNA 2: CTCAACACTTAACTACCATCCGGACCAGAAGAGTCATCATCC
modifications: none
Regarding B1, the Kd in data set [1] (label: ATTO550 or ATTO647N (EMSA)) turned out to be 1100 ± 150 nM.

B2: 42 bp mC-C' (dsDNA)
DNA 1: GGATGATGACTCTTCTGGTCCGGATGGTAGTTAAGTGTTGAG
DNA 2: CTCAACACTTAACTACCATCCGGACCAGAAGAGTCATCATCC
modifications: 5-methylcytosine at central CpG, one strand
Consider B2, for which the Kd in data set [1] (label: ATTO550 (EMSA)) amounted to 750 ± 110 nM. Further, the binding signal in data set [2] is about 1.5 fold vs C-C'.

B3: 42 bp mC-caC' (dsDNA)
DNA 1: GGATGATGACTCTTCTGGTCCGGATGGTAGTTAAGTGTTGAG
DNA 2: CTCAACACTTAACTACCATCCGGACCAGAAGAGTCATCATCC
modifications: 5-methylcytosine on one strand, 5-carboxylcytosine on the other at central CpG
Regarding B3, the Kd in data set [1] is 390 ± 110 nM.

B4: 42 bp caC-caC' (dsDNA)
DNA 1: GGATGATGACTCTTCTGGTCCGGATGGTAGTTAAGTGTTGAG
DNA 2: CTCAACACTTAACTACCATCCGGACCAGAAGAGTCATCATCC
modifications: 5-carboxylcytosine at central CpG, both strands
With B4, in data set [1] (label: ATTO550 (EMSA)), the Kd was found to be 230 ± 50 nM. The binding signal in data set [3] and in data set [2] was about 2 fold vs C-C' in each case.

B5: 42 bp caC-C' (dsDNA)
DNA 1: GGATGATGACTCTTCTGGTCCGGATGGTAGTTAAGTGTTGAG
DNA 2: CTCAACACTTAACTACCATCCGGACCAGAAGAGTCATCATCC
modifications: 5-carboxylcytosine at central CpG, one strand
As for B5, the equilibrium dissociation constant (Kd) in data set [1] (label: ATTO550 (EMSA)) was determined as 1100 ± 290 nM.
